Test results reported in the DeepSol protein solubility set.

Assay: soluble on expression in E. coli; label from the status in PepcDB or PDB records

Soluble on expression in E. coli, not soluble:
MGSDKIHHHHHHMTEKTTAELENLRGLIDGVDSQLLSLLRKRLDLVAQVGTVKHAAGLPIYAPAREAAMLGKRRAEAEAMGVSPQLIEDILRRLMRESYMSEKDVGFKQVNPELGHIVIIGGQGQLGRLFAQMFALSGYEVRLLDKDDWDHADELFDGAGLVLVTVPIATTCSLIRERLDHLPEHCILADLTSVKGAPLKAMLETHKGPVVGLHPMFGPDVGSLAKQVVVVCHGRAPEKYQWLMEQIGIWGARLVEADAGRHDKAMQLVQAMRHFSSFVYGLNLCREQADIDTLLEFSSPIYRLELAMVGRLFAQSGELYADIIFAQEESLTAISDFIDNYRDALELLKTGDRAGFIARFNEVSNWFGNYSQQFLTESRAMLQSVNDMRSV, MGSDKIHHHHHHMTERELEILALLKQDPLIPQQELADRLGISRSAVAGHIMNLTNKGVIRGKGYILAEAKYAMVIGGANMDILGRPASSLRVGDSNPGSVSCSPGGVGRNIAENLARLGSDTRLMTAVGKDAYGQQIVEHCQRAGIDMKPSLQLSDGVTSTYLSVLDGDSDMHVAINDMAILERLGVEQLKSQQEMLKRASLAIIDANLSEAALAYLLSNFADIPLFVDTVSCAKAEKIKPYLGAVHTLKPNLKEAEQLSGISIANYGELPVLANWFHEQGVKRVFLSLGIDGVFYSDGEEQAHIPAIPVEMVNANGAGDAFLAGLAHGFMQGWSTRQSTEFAMAAAVVALSDLATINPNMSEISVNRVIKESLC, MGSDKIHHHHHHMTERNSQDIGIQARFAEAEALGAHVYVLAAPLHNGSLPGALSVRRDHVACMLDGGADVQAVSPHLIYIPPSHFESARGWLERHGPASPCATILASPLPLAALAEHLKSFLRVCLPDGEPIVLAYWDPAILATLVGSAEDETLFVKGPVLSGEQRQAFLAPILRWTYWDRKGALRQIDWRQDRMPASAATLKPPLKLDQGQVDALTEASVPDGLLQHFSEHAPELLADVPERDRYGFVCRQIARARQHGIEGPGAWMDYCALAMRHGEAFDSHPDGVALLRTILPTASDRFSAS, MGSDKIHHHHHHMTFILNSQNVFNYLLEKGLCNQSEQPPAKIEQLTAKNFNLLVTLPGDRKLLVKQERHNPEGKAAGEFLIEWRIQEFLQQFPNLSNYRSFLPEVLHFDVENSIIVFKYFDDYRDLMDFYTKGNSFNIEIATAIGNILGTIHRDTFNRQEYQEFFTKNSDNLMGDQVLHLVRRLERVEPEIFGIVPSDGLKFFALYQRYDSLGQAIAELGNAVTPSCLTHNDLKLNNILLHKDWQDSSNNIVRLIDWERSAWGDPAFDLGTLISSYVQIWLGSLVISNSLSIEESLRLAITPLEVLQPSISTLTQAYLKTFPEILDHRSDFLQRVVQFTGFTLIQQIQAMIQYQKSFGNMGIAMLQVAKTLLSRPVQSMPTIFGAAAVELGHLNNSPV, MGSDKIHHHHHHMTGIALSPIGALWGIVGAKTHGTVEMGAALTHRGCYMAMEEGPTFSFGARHSAEIWPISVDDDIAVVYSGFPFVVDEETRTPRYLSAEDIRTEFLRFGADFFRVLCGHYAIAVYCYTRHRLILVRDAFGVQSLSWASSNENFAFSTEYKALLSLPWVERNLDHDAARGFVDDGWAPAGRTFLRHISMVLPGSILIWQNGNLETIHLRQDLCKTRPPFRPISVRHVEMTVRETIGWQANDFSPRYGVMLSSGVDSAVIAATLRRIRRDSEIHTFTVGYGYDDPEIIGASATASVLGTQHHEIIVRPDALTALLTDTIVAVDNPGGYEEFPCLYALHQEARQFVDIIFSGNAADTLFAGMPYHRDLLSTDDAIYRRLCNDLTVRDERLAAQELLAGRHGLNFRMPYAERILIDLALEIPDFQKLSPENDKIIFREAARQILPDEITMRPKRIQHLLYDDSMCSWLAERIEWICSSSLLRTHSLGELEGAAILPPRNLELTEESFKAAWNVVALATWASIYLA, MGSDKIHHHHHHMTILHSTDFFKAGISTVAIEPRLPQSAFPEHHHDFHEIVIVEQGSGIHVFNGQPYTIGGGSVCFIRDHDRHLYEHTDNLCLTNVLYRAPDAFRFLAGVSQLLPQEQEGNYPSHWRVNQTVLQQVRHIVAQIEAVGSDTDTHAVASREILFMQLLVLLRKSSLAEEATNNDARLNQLLAWLEDHFAQEICWEEVAAQFSLSLRTLHRQLKQQTGLTPQRYLNRVRLMKARHLLRHSDESVTDIAYRCGFGDSNHFSTLFRREFDWSPRDIRQGRDAILQ, MGSDKIHHHHHHMTINDLQAFVMVYDLRHISNAAVELHLSQSELSKRMRALENELNIKLLDTHNKRRLQITPAGETFYHHAHKMITDYETMMHDLAPNRPTTFAKLIIGAIPISGQYNIAKKIATFDTQHPDTEIKIIEDEGDQIVKRLLSGELQAAIIRDTQTTQLQPTEFQKQPLLADELKIILPRDHPLATQPVIRIQDLARQKIATLPPGSGVYEPINALFAQQGMTPQFFFESTHIETLLGILNQNNVTFLFKQSVLPFMTEHVVMRSLAIPFISQLNFVYPQRTGNQLLTDLIDYLTVTAQENQQV, MGSDKIHHHHHHMTIYTLSHGSLKLDVSDQGGVIEGFWRDTTPLLRPGKKSGVATDASCFPLVPFANRVSGNRFVWQGREYQLQPNVEWDAHYLHGDGWLGEWQCVSHSDDSLCLVYEHRSGVYHYRVSQAFHLTADTLTVTLSVTNQGAETLPFGTGWHPYFPLSPQTRIQAQASGYWLEREQWLAGEFCEQLPQELDFNQPAPLPRQWVNNGFAGWNGQARIEQPQEGYAIIMETTPPAPCYFIFVSDPAFDKGYAFDFFCLEPMSHAPDDHHRPEGGDLIALAPGESTTSEMSLRVEWL, MGSDKIHHHHHHMTKHNKAYKFRLYPTGDQAHLMRKTFGCVRFVYNRMLAERKEAYEKHKDDKEQLKKQKLPTPAKYKAEFEWLKEVDSLALANAQLNLQTAYKNFFRGQNDFPTFKSKKDRKSYTTNVVNGNIMLLNGHIKLPKLKMVRIKQHREIPQDHVIKSCTISMTPTGKYYVSILTEYEKEIVQNEVETVVGLDFAMDRLYVSSEDERANYPKFYREMLDRLAKAQRVLSRRTKGSIRWNKQRIRVAKLHEKVANQRKNFLHHKSKELATHFDVVAIEDLNMKGMSQALHFGKSVADNAWGMFTSFLAYKLHEQGKQLMKIDKWFPSTKTCSSCGNVKNMSLSERVYSCICGVNLDRDYNAAINIKNEAIRLLALA, MGSDKIHHHHHHMTKKILFCATVDYHFKAFHLPYFKWFKQMGWEVHVAANGQTKLPYVDEKFSIPIRRSPFDPQNLAVYRQLKKVIDTYEYDIVHCHTPVGGVLARLAARQARRHGTKVLYTAHGFHFCKGAPMKNWLLYYPVEKWLSAYTDCLITINEEDYIRAKGLQRPGGRTQKIHGIGVNTERFRPVSPIEQQRLREKHGFREDDFILVYPAELNLNKNQKQLIEAAALLKEKIPSLRLVFAGEGAMEHTYQTLAEKLGASAHVCFYGFCSDIHELIQLADVSVASSIREGLGMNVLEGMAAEQPAIATDNRGHREIIRDGENGFLIKIGDSAAFARRIEQLYHKPELCRKLGQEGRKTALRFSEARTVEEMADIYSAYMDMDTKEKSV, MGSDKIHHHHHHMTKNKLNQNSYELEKVKERIEQILSQFFPEQIMKDLPLYGKMLRVRLSILSFKNRGVEIGEDAISSLAALELVHLASLLHDDVIDGARFRRGKETINFMYGDKAAVAAGDLVLVSAFHTVEEIGNNKLRRAFLNVIGKMSEAELIEQLSRYKPITKEEYLRIVEGKSGALFGLALQLPALLEGELGEDLYNLGVTIGTIYQMFDDIMDFAGMEKIGKDGFLDLKNGVASFPLVTAMEKFPEARQMFENRDWSGLMSFMREKGILKECEETLKVLVKNVIIENSWLRDFVDGIFKIKISS, MGSDKIHHHHHHMTKNNEAGWNLDNSYATLPHSFYTEIPPTPVSSPELVKLNHSLAISLGFNPEELKKETEIAIFAGNALPEGAHPLAQAYAGHQFGHFNMLGDGRALLIGEQITPSGKRFDIQLKGSGPTPYSRRGDGRAALGPMLREYIISEAMYALDIPTTRSLAVVTTGEPTYRETKLPGAILTRVASSHIRVGTFQYAAARGSIEDLQSLADYTIKRHYPEIEDPENRYTALLQEVIKKQASLIAKWQLVGFIHGVMNTDNITISGETIDYGPCAFMDHYDQGTVFSSIDTQGRYAYGNQPYMAAWDLARLAESLIPILHEDEEEALKIAQDEISKFSVQYENLWFLGMKKKLGLFSNEEQDHSLIEQLLKMMEKYKADYTNTFRSLTLNTLENTPLFDSSEFKEWYKLWQSRLERQDESKENAYEMMKNNNPSIIPRNHRVEEALEAAVTNGDYSVMEKLLEALANPYAYATDQEEYCVTPAPTNRPYRTFCGT, MGSDKIHHHHHHMTLALGRLDSITLLLPDPELFLYSYVRREAVLSSQIEGTQSTLTQLMLFELEESPGVPFDDVVEVSNYVAALDHGVARLKEGFPLSNRLIREMHTVLLFRGRGSNKGPGEFRRSQNWIGGTRPGNALFVPPPPHLVPQCMADLERFLHDENNPYPSVLKAALAHVQFETIHPFLDGNGRIGRLLIAFILHHDGILSRPLLYLSLYFKRHRETYYRLLDRVRTEGDWEAWTDFFLEGVRETAGNAVDTARRLIALFEADQQKIQSLGRSASSTLQVFQAFKERPLLTVGRISERTGLSFPAANQAVGRMEKKLGIVREITGRRRERAYAYDQYVAILNEGAEE, MGSDKIHHHHHHMTLPISVFIITKNEEKHIAKTLASVKDMDEVILVDSGSTDKTLSIAQQFGATIFSHEWQGYAKQKQYAMSLCRNEWVLNLDGDEAINPQLIAAFKEIIEQDKADSVRFWRNDIFIGKPLSSLSKKPNNHRLYKKSKSFFDDSRLAHESATVDGKEIFINQVFDHYGYDSIAAITNKNNTYSTLKADEKFVKGKSFSHLKLFLIFPLVFIKEYLLQRKLFSGRRGFILAVMEAYYAFLKEAKLFENHQNKPN, MGSDKIHHHHHHMTMDAATAVSDQGKQDLPAGDGATLSLKDRIARDLGQRILAGIYAQHAVLPTEAELCVIYGASRTALRDALLTLSAKGLIEARKRAGTRVRVSSEWNRLDAQVLEWMRDIEPDLDFVRGLIEARLVIEPAAAQLAAKMATSGDLAVIEAAYEAMRIAPEDDLAACLDADVRFHTAILRASRNPVFANLGNMLAAALSFSFRLTTSATANYQQTLSAHGDVLEAIRMRRVDDAHDQMKALIGIASNDLLAVARKGRHQQPVPTASADPI, MGSDKIHHHHHHMTNDAIVIGSGIGGLVTATQLAAKGAKVLVLERYLIPGGSAGYFERQGYRFDVGASMIFGLGQNGTTNLLTRALTAVNVSQDAIADPVQIHYHLPQGLDLKVDRVYEKFLQNLIAHFPHEEKGIRRFYDECQKVFKCLNSMDLLSLEEPWYLLRVFFQHPLACLGLVKYLPQNAGDFARRYIKDPKLLKFIDMECYCWSVVPSDMTPMINAGMVFSDRHYGGVNYPKGGVGQIAQKLVEGLEKAGGKIQYKARVTKILTEKGKAVGVQLANGKVYRGKRIVSNATRWDTFEQLLPAEEMPLNEKKWQQNYQKSPSFLSLHIGVKESVLPVGTECHHILLEGWEKMTAVEGTIFVSIPTLLDPDLAPSGYHIIHAFTPHWIDDWQELSPSEYKAKKEEAAGRIIDRLEKIFPGLDAGLDYLEVGTPRTHRRFLGRQDGSYGPIPRRKLRGLLKMPFNRTAIPGLYCVGDSTFPGQGLNAVAFSGFACAHRIAVDLGF
